Experimental data: IntAct's records for PubMed 21135237

B1: Glutamate receptor 1 (Rattus norvegicus (Rat)), P19490 (parent)
chain: MPYIFAFFCTGFLGAVVGANFPNNIQIGGLFPNQQSQEHAAFRFALSQLTEPPKLLPQIDIVNISDSFEMTYRFCSQFSKGVYAIFGFYERRTVNMLTSFCGALHVCFITPSFPVDTSNQFVLQLRPELQEALISIIDHYKWQTFVYIYDADRGLSVLQRVLDTAAEKNWQVTAVNILTTTEEGYRMLFQDLEKKKERLVVVDCESERLNAILGQIVKLEKNGIGYHYILANLGFMDIDLNKFKESGANVTGFQLVNYTDTIPARIMQQWRTSDSRDHTRVDWKRPKYTSALTYDGVKVMAEAFQSLRRQRIDISRRGNAGDCLANPAVPWGQGIDIQRALQQVRFEGLTGNVQFNEKGRRTNYTLHVIEMKHDGIRKIGYWNEDDKFVPAATDAQAGGDNSSVQNRTYIVTTILEDPYVMLKKNANQFEGNDRYEGYCVELAAEIAKHVGYSYRLEIVSDGKYGARDPDTKAWNGMVGELVYGRADVAVAPLTITLVREEVIDFSKPFMSLGISIMIKKPQKSKPGVFSFLDPLAYEIWMCIVFAYIGVSVVLFLVSRFSPYEWHSEEFEEGRDQTTSDQSNEFGIFNSLWFSLGAFMQQGCDISPRSLSGRIVGGVWWFFTLIIISSYTANLAAFLTVERMVSPIESAEDLAKQTEIAYGTLEAGSTKEFFRRSKIAVFEKMWTYMKSAEPSVFVRTTEEGMIRVRKSKGKYAYLLESTMNEYIEQRKPCDTMKVGGNLDSKGYGIATPKGSALRNPVNLAVLKLNEQGLLDKLKNKWWYDKGECGSGGGDSKDKTSALSLSNVAGVFYILIGGLGLAMLVALIEFCYKSRSESKRMKGFCLIPQQSINEAIRTSTLPRNSGAGASGGGGSGENGRVVSQDFPKSMQSIPCMSHSSGMPLGATGL

Variants of: B1
Conditions: with kcc2a_rat Camk2a

Row | effect of a mutation on the interaction | Variant
1 | disrupting interaction | S567A
